Source: paper PMC2683190

Target: GST-LIF05 (mutant human LIF, LIFR antagonist, as glutathione-S-transferase fusion protein) (human) (UniProt P15018)
Assay: SPR

Sequence of GST-LIF05 (mutant human LIF, LIFR antagonist, as glutathione-S-transferase fusion protein) (human) (P15018 23-202, change not shown): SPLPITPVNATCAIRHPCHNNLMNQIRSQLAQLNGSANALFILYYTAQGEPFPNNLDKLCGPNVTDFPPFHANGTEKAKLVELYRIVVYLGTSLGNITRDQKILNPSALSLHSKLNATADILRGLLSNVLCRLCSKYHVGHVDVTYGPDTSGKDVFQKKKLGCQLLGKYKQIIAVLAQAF

B1: soluble LIFR (leukemia inhibitory factor receptor) (receptor)
chain: QKKGAPHDLKCVTNNLQVWNCSWKAPSGTGRGTDYEVCIENRSRSCYQLEKTSIKIPALSHGDYEITINSLHDFGSSTSKFTLNEQNVSLIPDTPEILNLSADFSTSTLYLKWNDRGSVFPHRSNVIWEIKVLRKESMELVKLVTHNTTLNGKDTLHHWSWASDMPLECAIHFVEIRCYIDNLHFSGLEEWSDWSPVKNISWIPDSQTKVFPQDKVILVGSDITFCCVSQEKVLSALIGHTNCPLIHLDGENVAIKIRNISVSASSGTNVVFTTEDNIFGTVIFAGYPPDTPQQLNCETHDLKEIICSWNPGRVTALVGPRATSYTLVESFSGKYVRLKRAEAPTNESYQLLFQMLPNQEIYNFTLNAHNPLGRSQSTILVNITEKVYPHTPTSFKVKDINSTAVKLSWHLPGNFAKINFLCEIEIKKSNSVQEQRNVTIKGVENSSYLVALDKLNPYTLYTFRIRCSTETFWKWSKWSNKKQHLTTEASPSKGPDTWREWSSDGKNLIIYWKPLPINEANGKILSYNVSCSSDEETQSLSEIPDPQHKAEIRLDKNDYIISVVAKNSVGSSPPSKIASMEIPNDDLKIEQVVGMGKGILLTWHYDPNMTCDYVIKWCNSSRSEPCLMDWRKVPSNSTETVIESDEFRPGIRYNFFLYGCRNQGYQLLRSMIGYIEELAPIVAPNFTVEDTSADSILVKWEDIPVEELRGFLRGYLFYFGKGERDTSKMRVLESGRSDIKVKNITDISQKTLRIADLQGKTSYHLVLRAYTDGGVGPEKSMYVVTKENS
Work on B1 yielded a Kd of 4.72 nM, a koff of 0.00265 s⁻¹ and a kon of 562000 M⁻¹ s⁻¹.
